According to the nanobody polyreactivity screen of Harvey et al. (2022):

Experiment: yeast display, Sf9 membrane polyspecificity reagent, FACS + sequencing; frameworks hold sequencing errors
Procedure, shortened: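 A synthetic nanobody library was expressed on Saccharomyces cerevisiae BJ5465 by galactose induction for 36–48 hours. The library was stained for 1 hour at 4 °C with 10% biotinylated, detergent-solubilized Sf9 membrane reagent and enriched with streptavidin microbeads before FACS. Low and high (top ~1%) gates were set on anti-HA fluorescence for expression and streptavidin fluorescence for reagent binding, and each polyreactivity label reflects the gate of origin.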

| Sequence | polyreactivity (PSR sort gate) |
| --- | --- |
| QVQLVESGGGLVQAGGSLRLSCAASGRTFYANVMGWYRQAPGKERELVAAITSGGSSYYADSVKGRFTISRDTAKNTVYLQMNSLKPDDTAVYYCAAGSNLNGVWFDYWGQGTQVTVSS | low polyreactivity |
| QVQLVESGGGLVQAGGSLRLSCAASGSTFYAYTMGWYRQAPGKEREFVAAISKSGGSTYYADSVKGRFTISRDNAKNTVYIQMNSLKPEDTAVYYCAARVYYRYDWGQGTQVTVSS | high polyreactivity |
| QVQLVESGGGLVQAGGSLRLSCAASGLIFDHNAMGWYRQAPGKERELVAAISYSGARTYYADSVKGRFTISRDNAKNTVYLQMYSLKPEDTAVYYCNAVINSHRRHVTYDYWGQGSQVTVSS | high polyreactivity |
| QVQLVESGGGLVQAGGSLRLICAASGSTFPSYAMGWYRQAPGKERELVAAITWSGDSTYYADSVKGRFTILRDNAKNTVYLQMNSLKPEDTAVYYCAKDGGYPVGVLGGDDMEYWGQGTQVTVSS | low polyreactivity |
| QVQLVESGVCLVQAGGSLRLSCAASGIIISTYAMGWYRQAPGKERELVAAITWGGTRTNYADSVKGRFTISRDNAKNTVYLQMKSLKPEDTAVYYCAASYVRDSYTHGSWGQGTQVTVSS | low polyreactivity |
| QVQLVESGGGLVQAGGSLRLSCAASGRTFGYNVMGWYRQAPGKEMELVAGITSSGSTNYADSVKGRFTISRDNAKNTVYLQMNSLKPEDTAVYYCNADRLITWQLLYISSYRYDYWGQGTQVTVSS | high polyreactivity |
| QVQLVESGGGLVQAGGSLRISCAASGLIFGINAMGWYIQAPGKERELVATITSGGGTNYADSVKGRFTISRDNAKNTVYLQMNSLKPEYTAVYFCALDSASDTIYDYWGQGTQGTVSS | low polyreactivity |
| QDQLVESGGGLVQAGGSLRLSCAASGSTFEVYAMGWYRQAPGKERELVAGITRGGSTNYADSVKGRFTISRDNAKNTVYLQMNSLKPEDTAVYYCAAPKYLGTDEYDYWGQGTQVTVSS | low polyreactivity |
| QVQLVESGGGLVQAGGSLRLICAASGRIFKWYAMGWYRQAPGKERELVATITWSGGSTYYADSVKGRFTISRDNAKNTVYLQMNSLKPEDTAVYNCNADTWLALPGFDYWGQGTQVTVSS | high polyreactivity |
| QVQLQESGGGLVQAGGSPRLSCAASDNIFPDSVMCWYRQAPGKERELVATIGFGATTNYADSVKGRFTISRDNAKNTVYLQMNSLKPEDTAVYYCAAVPLNYEYFCYWGQGTQVTVSS | low polyreactivity |
| QVQLVESGGGLVQAGGSLRLSCAASGRTFGDYAMGWYRQAPGKERELVAAISKSGGITYYADSVKGRFTISRDNAKNTVYLQMNSLKPEDTAVYYCNADGSPFYYSGYDYWGQGTQVTVSS | high polyreactivity |
| QVHLVESGGALVQAGGSLRLSCAASGRTFGIYAMGWYRQAPGKERELVATISWRGGSTYYADSVKGRFPISRDNAKNTVYLQMNSLKPEDTAVYYCAAGYYPYWGQGTQVTVSS | low polyreactivity |
| QVQLVESGGGLVQAGGSLRLSCAASGYIYQRNAMGWYRQAPGKERELVARINYRGGSFYADSVKGRCTISRDNAKNTGYLQMNSLKPEDTAVYYCAARTSGDMYSWGQGTQVTVSS | high polyreactivity |
| QVQLVESGGGLVQAGGSLRLSCAASGIIFADYDMGWYRQAPGKERELVAAITGSGGSTYYADSVKGRFTISRDNEKKTVYLQMNSLKPEDTAVYYCAADYAYSYGYHYGYWGQGTQVTVSS | high polyreactivity |
| QVQLVESGGGLVQAGGSLRLSCAASGRIFGVNAMGWYRQAPGKERELVAAISSNGGRTYYADSVKGRFTISRDNAKNTVYLQMNSLKPEDTAVYYCATRSSVGARHYYWGQGTQVTVSS | high polyreactivity |
| QVQLVESGGGLVQAGGSLRLSCAASGRNSPSYAMGWYRQAPGKERELVAAISKRGGTTYYADSVKGRFTISRDNAKNTVYLQMNSLKPEDTAVYYCSARDYSHPTDDNYWGQRTQVTVSS | high polyreactivity |
| QVQLVESGGGLVQAGGSLRLSCAASGSTFYVYAMGWYRQAPGKERELVASINSGGITNYADSVKGRFTISRDNAKNTVYLQMNSLKPEDTAVYYCAARSYKTGRYPQRNKYYYWGQGTQVTVSS | high polyreactivity |
| QVQLVESGGGLVQAGGSLRLSCAASGRIFPWNAMGWYRQAPGKDRELVAAISFSAGRTYYADSVKGRFTISRDNAKNTVYLQMNSLKPEDTAVYYCNARIGSPWVWTGIIGYEYWGQGTQVTVSS | low polyreactivity |
| QVQLVESGGGLVQAGGSLRLSCAASGRPFYVYAMGWYRQAPGKERELVASIRRSGGITYYADSVKGRFTISRDNAKNTVYLQMNSLKPEDTAVYYCNARRGPGRREYDYWGQGTQVTVSS | high polyreactivity |
| QVQLVESGGGLAQAGGSLRLSCAASGRTFRTYTMGWYRQAPGKERELVAAISWSGSSTYYADSVKGRFTISRDNAKNTVYLQMNSLKPEDTAVYYCAARGLYDYGYWGQGTQVTVSS | high polyreactivity |
| QVQLVESGGGLVQAGGSLRLSCAASGRIFAQNAMGWYRQAPGKERELVAAISWGGGGTYYADSVKGRFTISRDNAKNTVYLQMNSLKPEDTAVYYCAADSPGFGAWDRYEYWGQGTQVTVSW | low polyreactivity |
| QVQLVESGGGLDQAGGSLRLSCAASGSTFGYYAMAWYRQSPGKERELVAAITSGASTNYADSVKGRFTISRDNAKNTVYLQMNSLKPEDTAVYYCAAGFQTRTPLNEFDYWGQGTQVTLSS | low polyreactivity |

| Sequence | polyreactivity (PSR sort gate) |
| --- | --- |
| QVQLVESGGGLVQAGGSLRLSCAASGLIFPYYTMGWYRQAPGKERELVAAISWRGGGTFYADSVKGRFTISRDNAKNTVYLQMNSLNPEDTAVYYCAAQLYPYRWYYWGQGTQVTVSS | high polyreactivity |
| QGQRVESGGGLVQAGGSLRLSCAASGLIFSRYGMGWYRPARGKDRELVAAISGGGGSTYYADSVKGRFTISRDNAKNTVYLEMNSLKPEDTAVYYCARKYTRKIPASDYWGQGTQVTVSS | high polyreactivity |
| QVQLVESGGGLVQAGGSLRLSCAGSGFTFGIYAMGSDRQAPGKERELVAAISSSGGSTYYADSVKGRFTISRDNAKNTVYLQMNSLKPEDTAVYYCAAVNSRRRYWYDYWGQGTQVTVSS | high polyreactivity |
| QVQLVESGGGLVQAGGSLRLSCAASGNTFLYYGMGWYRQAPGKERELVAAITSGGITYYADSVKGRFTISRDNAKNTVYLQMNSLKPEETAVYFCNKDVGFTRPLYYWGQGTQVTVSS | low polyreactivity |
| QVQLVESGGGLVQAGGSLRLSCAASGRIFGGNAMGWYRQAPGKERELVAAISQRGGSTSYADSVKGRFTISRDNAKNTVYLQMNSLKPEDTAVYYCAATWGYLRGSTKFYYWGQGTQVTVSS | high polyreactivity |
| QVQLVESGGGLVQAGGSLRLSCAASGSTFPLYAMGWYRQAPGKERELVAAITGGGGRTYYADSVKGRFTISRDNAKNTVYLQMNSLKPEETAVYYCAASKQRYYRWWTTPGYDYWGQGTQVTVSS | low polyreactivity |
| QVQLVESGGGLVQAGGSLRLSCAASGFTFGYYAMGWYRQAPGKERELVAAISRSGGRTYYADSVKGRFTISRDNAKNTVYLEMNSLKPEDTAVYYCNAVIHGWTLDYEYWGQGTQVTVSS | high polyreactivity |
| QVQLVESGGVLVQAGGSLRLSCAASGSIYRYYAMGWYRQAPGKERELVAAISWRGGSTYYADSVKGRFTISRDNAKNPVYLQMNSLKPEDTAVYYCAAELWVGTYGEYDYWGQGTQVTVSS | low polyreactivity |
| QVQLVESGGGLVQAGRSLRLICAASGSTFYVNAMGWYRQAPGKEREFVAAIRWPGGSTYYADSVKWRFTISRDNAKNTFYVQMNSLKPEDTAVFYCAARIKYRYVWGQGTQVTVSS | low polyreactivity |
| QVQLVESDGGLVQAGGSLRLSCAASGSTFNVYAMGWNRQAPGKERELVAAITSGGSTYYADSVKGRFTISRDNANNTVYLQMISQKPEDTAVYYCADDVSLSVFKLDYWGQGTQLTVSS | low polyreactivity |
| QVQLVESGGGLVQEGGSLRLICAASGSILGSNAMGWYRQAPGKEREFVAAITWTGGSTYYADSVKGRFTISRDNAKNTVYLQMNSLKREDTAVYYCAKDVKYVKMDYWGQGTQVTVSS | low polyreactivity |
| QVQLVESGGGLVQAGGSLRLSCAASGSTFPDNAMVWYRQAPGKEREFVATITWRGGRTNYADSVKGRFTISRDNAMNTVYLQMNSLKPEDTAFYYCDKVVRYARSNEYDTWGQGTQLTVSS | low polyreactivity |
| QVQRVESGGGLVQAGGSRRLTCAASGRTSVPYARGWYRQAPGKERELVAAITSGGSTYYADSVKGRFTISRDNAKNTVYLQMNSLKPEDTAVYYCAASLPHSAPYTASYGSWGQGTQVTVSS | low polyreactivity |
| QVQLVESGGGLVQAGGSLRLSCAASGFIIGWYVMGWYRQAPGKERELVAAITWDSTSTYYADSVKGRFTISRDNAKNTVYLQMNSLKPEDTAVYYCAADRLDRYYYWGEGTQVTVSS | low polyreactivity |
| QVQLVESGGGLVQAGGSLRLSCAASGRIFVTNAMGWYRQAPGKERELVAAISYRGGRTYYADSVKGRFTISRDNAKNTVYLQMNSLKPEDTAVYYCNAVTRWPFDYWGQGTQVTVSS | high polyreactivity |
| QVQLVESGGGLVQAGGSLRLSCAASGGTIAFNGMGWYRQAPGKERELVAAITWRSGSTYYADSVKGRFTISRDNAKNTVYLQMNSLKPEDTAVYYCAARLYRYTPFDYWGQGTQVTVSS | high polyreactivity |
| QVQLVESGGGFVQAVGSLRLSCAASGSTFPRYVLGWYRQAPGTARELVAAITWRGSTNDADSVKGRFTISRDNAKNTVYLQMNSLKPEDSAVYYCAAAFFARDRKRYNYWGQGTQVTVSS | high polyreactivity |
| QVQLVESRGCLVQAGVSLRLSCAASGSTFQSYAMGCYRQAPGKERELVAAISTSETDRTYYADSVKGRFTISRDNAKNTVYLQMISLKPEDTAVYYCNADGYSHGDWYGYWGQGTQVTVSS | low polyreactivity |
| QVQLVESGGGLVQAGGSLRLSCAASGSIFWIYAMGWYRQAPGKERELVARITWTGGRTYYADSVKGRFTISRDNAKNTVYLQMNSLKPEDTAVYYCAVTSYRQRGAFDYWGQGSQVTVSS | high polyreactivity |
| QVQLVESGGGLVQAGGSLRLSCAASGSTFSDNAMGWYRQAPGKERELVAAISSGGSTNYADSVKGRFTISRDNAKNTVYLQMNSLKPEDTAVYYCAREYYSRRYDYWGQGTQVTVSS | low polyreactivity |
| QVQLVESGGGLVQAGGSLRLSCAASGGTFYYYAMGWYRQAPGKERELVATITWSGDSTNYADSVKGRFTISRDNAKNTVYLQMNSLKPEDTAVYYCAKDLTQSYEYDYWGQGTQVTVSS | low polyreactivity |
